Source: publication PMC9742198 (Immunity, 2022)

Molecular target: SARS-CoV-2 receptor-binding domain (ancestral RBD) (SARS-CoV-2 (ancestral), UniProt P0DTC2)
Experiment: ELISA

B1: CAB-I12 (antibody, V domains shown)
VH: QVQLVQSGAEVKKPGSSVKVSCKASGDTFSRYSISWVRQAPGQGLEWMGRIIPMFATANYAQKFQGRVTITADKTTSIAYMELSSLRSEDTAVYYCARANYYYESGGYHFDNWGQGTLVTVSS
VL: EIVLTQSPGTLSLSPGERATLSCRASQSVGSSYLAWYQQKPGQAPRLLIYGASTRATGIPHRFSGSGSGTDFTLTISRLEPEDFAVYYCQQYHNSPRTFGQGTKV
- binding result: binds
